Results taken from IntAct's records for PubMed 16000169.

B1: DNA polymerase delta subunit 3 (Homo sapiens), Q15054 (parent)
chain: MADQLYLENIDEFVTDQNKIVTYKWLSYTLGVHVNQAKQMLYDYVERKRKENSGAQLHVTYLVSGSLIQNGHSCHKVAVVREDKLEAVKSKLAVTASIHVYSIQKAMLKDSGPLFNTDYDILKSNLQNCSKFSAIQCAAAVPRAPAESSSSSKKFEQSHLHMSSETQANNELTTNGHGPPASKQVSQQPKGIMGMFASKAAAKTQETNKETKTEAKEVTNASAAGNKAPGKGNMMSNFFGKAAMNKFKVNLDSEQAVKEEKIVEQPTVSVTEPKLATPAGLKKSSKKAEPVKVLQKEKKRGKRVALSDDETKETENMRKKRRRIKLPESDSSEDEVFPDSPGAYEAESPSPPPPPSPPLEPVPKTEPEPPSVKSSSGENKRKRKRVLKSKTYLDGEGCIVTEKVYESESCTDSEEELNMKTSSVHRPPAMTVKKEPREERKGPKKGTAALGKANRQVSITGFFQRK

Variants of: B1
Conditions: with pcna_human PCNA

effect of a mutation on the interaction	Variant
disrupting interaction	K320N;R321G;R322G
